B1: E3 ubiquitin-protein ligase RNF31 (Homo sapiens), Q96EP0 (parent)
chain: MPGEEEERAFLVAREELASALRRDSGQAFSLEQLRPLLASSLPLAARYLQLDAARLVRCNAHGEPRNYLNTLSTALNILEKYGRNLLSPQRPRYWRGVKFNNPVFRSTVDAVQGGRDVLRLYGYTEEQPDGLSFPEGQEEPDEHQVATVTLEVLLLRTELSLLLQNTHPRQQALEQLLEDKVEDDMLQLSEFDPLLREIAPGPLTTPSVPGSTPGPCFLCGSAPGTLHCPSCKQALCPACDHLFHGHPSRAHHLRQTLPGVLQGTHLSPSLPASAQPRPQSTSLLALGDSSLSSPNPASAHLPWHCAACAMLNEPWAVLCVACDRPRGCKGLGLGTEGPQGTGGLEPDLARGRWACQSCTFENEAAAVLCSICERPRLAQPPSLVVDSRDAGICLQPLQQGDALLASAQSQVWYCIHCTFCNSSPGWVCVMCNRTSSPIPAQHAPRPYASSLEKGPPKPGPPRRLSAPLPSSCGDPEKQRQDKMREEGLQLVSMIREGEAAGACPEEIFSALQYSGTEVPLQWLRSELPYVLEMVAELAGQQDPGLGAFSCQEARRAWLDRHGNLDEAVEECVRTRRRKVQELQSLGFGPEEGSLQALFQHGGDVSRALTELQRQRLEPFRQRLWDSGPEPTPSWDGPDKQSLVRRLLAVYALPSWGRAELALSLLQETPRNYELGDVVEAVRHSQDRAFLRRLLAQECAVCGWALPHNRMQALTSCECTICPDCFRQHFTIALKEKHITDMVCPACGRPDLTDDTQLLSYFSTLDIQLRESLEPDAYALFHKKLTEGVLMRDPKFLWCAQCSFGFIYEREQLEATCPQCHQTFCVRCKRQWEEQHRGRSCEDFQNWKRMNDPEYQAQGLAMYLQENGIDCPKCKFSYALARGGCMHFHCTQCRHQFCSGCYNAFYAKNKCPEPNCRVKKSLHGHHPRDCLFYLRDWTALRLQKLLQDNNVMFNTEPPAGARAVPGGGCRVIEQKEVPNGLRDEACGKETPAGYAGLCQAHYKEYLVSLINAHSLDPATLYEVEELETATERYLHVRPQPLAGEDPPAYQARLLQKLTEEVPLGQSIPRRRK

Variants of: B1
Conditions: with hoil1_human RBCK1, Q9BYM8
Chain of hoil1_human RBCK1, Q9BYM8 (Q9BYM8 whole entry): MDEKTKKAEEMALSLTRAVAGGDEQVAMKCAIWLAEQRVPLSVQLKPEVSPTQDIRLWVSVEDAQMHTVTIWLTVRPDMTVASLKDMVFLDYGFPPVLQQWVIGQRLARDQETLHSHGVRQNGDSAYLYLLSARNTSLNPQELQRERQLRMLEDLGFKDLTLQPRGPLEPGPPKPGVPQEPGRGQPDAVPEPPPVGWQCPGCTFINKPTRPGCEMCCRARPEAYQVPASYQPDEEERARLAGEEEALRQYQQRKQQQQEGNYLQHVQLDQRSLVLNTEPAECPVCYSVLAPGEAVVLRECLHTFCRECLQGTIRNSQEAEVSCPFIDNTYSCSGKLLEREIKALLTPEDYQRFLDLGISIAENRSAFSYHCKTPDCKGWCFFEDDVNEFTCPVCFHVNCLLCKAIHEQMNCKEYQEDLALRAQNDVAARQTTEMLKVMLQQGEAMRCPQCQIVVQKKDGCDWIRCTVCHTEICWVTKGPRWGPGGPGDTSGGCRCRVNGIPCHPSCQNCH

| effect of a mutation on the interaction | Variant |
| --- | --- |
| disrupting interaction | R623A |

Variants of: B1
Conditions: with hoil1_human RBCK1, Q9BYM8
Remark: another data set of the same source

| effect of a mutation on the interaction | Variant |
| --- | --- |
| disrupting interaction | L617A |

Variants of: B1
Conditions: with hoil1_human RBCK1, Q9BYM8
Remark: another data set of the same source

| effect of a mutation on the interaction | Variant |
| --- | --- |
| decreasing interaction | L617A |
| decreasing interaction | Q613A |

Variants of: B1
Conditions: with hoil1_human RBCK1, Q9BYM8
Remark: another data set of the same source

| effect of a mutation on the interaction | Variant |
| --- | --- |
| disrupting interaction | F620A |

Variants of: B1
Conditions: with hoil1_human RBCK1, Q9BYM8
Remark: another data set of the same source

| effect of a mutation on the interaction | Variant |
| --- | --- |
| decreasing interaction | F620A |

Variants of: B1
Conditions: with hoil1_human RBCK1, Q9BYM8
Remark: another data set of the same source

| effect of a mutation on the interaction | Variant |
| --- | --- |
| disrupting interaction | Q613A |

Source: IntAct's records for PubMed 22430200
